Test results as given in the nanobody polyreactivity screen of Harvey et al. (2022).

Assay: yeast display, Sf9 membrane polyspecificity reagent, FACS + sequencing; frameworks hold sequencing errors
Procedure, shortened: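 Genes from sorted yeast were amplified by colony PCR, read by MiSeq 2 × 250 sequencing and filtered on CDR length. These cells carried a synthetic nanobody library in Saccharomyces cerevisiae BJ5465 and were sorted by FACS into low and high (top ~1%) gates on anti-HA and streptavidin fluorescence. Polyreactivity is labelled according to the gate of origin.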

| Sequence | polyreactivity (PSR sort gate) |
| --- | --- |
| QVQLVESGGGLVEAGGSLRLSCDASGRIFYSNAMGWSRQAPGKERELVATITRSSGITYYADSVKGRFTISRDNAKNTVYLQMNSLKPEDTAVYYCAAPWYYYGYWGQGTQVTVSS | high polyreactivity |
| QVQLVESGGGLVHAGGCLRLSCAASGRTFAPYAMGWYRLAPGKERELVAAINSGDRTYYADSVKGRFTLSRDNAKNTVNLQINSLKPEDTSGYYCSSDALAGQYTWYKYDYWGQGSQVTVSS | low polyreactivity |
| QVQLVESGGGLVHAGGRLRLSCAASGSIFDYYAMGWSRPAPGKERELVADNTSGGSTNYADSVKGRFTISRDNAKNTVYLQMNSLKPEDTAVYYCATRIGYSDWPDGVWDLDDSEYYYWGQGTQVTVSS | low polyreactivity |
| QVQLVESGGGLVHAGGRLRLSCAASGSMFYPYAMGWYRQAPGKERELVAAISRSGGSTRYADSVKGRFTISRDHAQNTVYLQMNSLKPEDTAVYYCAVRVFYGVGLIGYYYWGQGSQVTVSS | high polyreactivity |
| QVQLVESGGGLVHAGGSHRLSCAATGRIFDANARGGYRQAPGKERELVAVISSRGGSTYYADSVKGRFTISRDNAKNTVYLQMNSLKPEDTAVYYCAKGFSVAGYDYWGQGTQVTVSS | low polyreactivity |
| QVQLVESGGGLVHAGGSIRLSCAASGRIFGYYTMGWYRQAPGKERELVAAIRGNGGSTYYADSVKGLFTISRDNAKNTVYLQMHSLKPQDTAVYYCAATDISYRRVPYGRKKQYDYWGQGTQVTVSS | high polyreactivity |
| QVQLVESGGGLVHAGGSIRLSCAASGRTFAYNDMGWYTQAPGTERELVAAISWSDGTTYYADSVKGRFTISRDNAKNPVYLQMHCLKPEDTAVYYCAAESYPSEVASYVSEYDYWGQGTQVTVSS | low polyreactivity |
| QVQLVESGGGLVHAGGSLLLSCAASGRTFRTYTMGLYRQAPGKERELVAVITWTGGSTYYADSVKGRFTISRDNAKNTVYIQMNSLKPEDTAVYYCAARIITFSNVYNGYEYWGQGTQVTVSS | high polyreactivity |
| QVQLVESGGGLVHAGGSLRLICAASGSIFQSYDMGWYRQAPGKERELVAAISWSGSTTYYADSVKGRFTISRDNAKNTVYLQMNSLKPEDTAVYYCAVDSNPPDWWAVIYGYWGQGTQVTVSS | low polyreactivity |
| QVQLVESGGGLVHAGGSLRLSCAASGFIFTKNAMGWYRQAPGKDRELVAAITSSGGNTYYADSVKGRFTISRDNAKNTVYLQMNSLKPEDTAVYYCAASRFLRMYWGQGTQVTVSS | high polyreactivity |
| QVQLVESGGGLVHAGGSLRLSCAASGFTFGYYALGWYRQAPGKERELVASISRSGGSTNYADSVKGRFTISRDNAKYTVYFQMNRLKPEDTAVYYCNKRVNTYRSGSRRYDYWGQGTQVTVSS | high polyreactivity |
| QVQLVESGGGLVHAGGSLRLSCAASGIIFRFYAMGWYRQAPAKERELVAAISSGGSTYYADSVKGRFTISRDNAKNTVYLQMIRLKPEDTAVYYCNARVRYKRTVRYGYWGQGTQVTVSS | high polyreactivity |
| QVQLVESGGGLVHAGGSLRLSCAASGLIFHHNAMGWYRQAPGKERELVAAISRSAGSTYYADSVKGRFTISRDNAKNTVYLQMNSLKPEDTAVYYCAKRPTPTSKYDTVGYGYWGQGTQVTVSS | low polyreactivity |
| QVQLVESGGGLVHAGGSLRLSCAASGNTFWPYAMGWYRQAPGKERELVAAINYSGTRTYYSDSVKGRFTISRDNAKNTVYLQMNSLKPEDTAVYYCAKATSPPGTTAGGYDYWGQGTQVTVSS | low polyreactivity |
| QVQLVESGGGLVHAGGSLRLSCAASGRIFGPYAMGWYRQAPGKERELVAAISRSGSTTYYAVSVKGRFTISRDNAKNTVYLQMNSLKPDDTAVYYCNGRRYRVVQSKPCDYWGQGTQVTVSS | high polyreactivity |
| QVQLVESGGGLVHAGGSLRLSCAASGRIFRIYAMGWYRQAPGKERELVAAISRGGRTNYADSVKGRFTISRDNAKNTVYLQMNSLKPEDTAVYYCNATSNWGPTKVRFNYWGQGTQVTVSS | high polyreactivity |
| QVQLVESGGGLVHAGGSLRLSCAASGRIFTAYAMGWYRQAPGKERELVASISTSGGRTYYADSVKGLFTISRDNAKNTVYLQMNSLIPEDTAVYYFAADFESYSRYYDGYDYWGQGTQVTVSS | high polyreactivity |
| QVQLVESGGGLVHAGGSLRLSCAASGRIFTTNAMGWYRQAPGKERELVASITRSGSTYYADSVKGRFTISRDNAKNTVYLQMNSLKPEVTAVYYCAAYAYIFLDWGGYPYYLYEYDYWGQGTQVTVSS | low polyreactivity |
| QVQLVESGGGLVHAGGSLRLSCAASGRIFTYYGMGWYRQAPGKERELVAAITWNGGSTYYADSVKGRFTISRDNAKNTVYLQMNSLKPEDTAVYYCNAVVYARSGGAQYGYWGQGTQVTVSS | low polyreactivity |
| QVQLVESGGGLVHAGGSLRLSCAASGRIFYYYTKGWYRQEPGKERELVAAISSGGSTNYADSVKGRFTISRDNAKNTVYLQMNSLKPEHTAVYYWARYGGYWSLKYDYWGQGTQVTVSS | high polyreactivity |
| QVQLVESGGGLVHAGGSLRLSCAASGRTFDIYAMGWYRQAPGKERELVAAISSGGSTYYADSVKGRFRISRDNAKKTVYLQKNSLKPEDTAVYYCAVRWYDQVSRRGIGYYWGQGTQVTVSS | low polyreactivity |
| QVQLVESGGGLVHAGGSLRLSCAASGRTFKFYAMGWYRQAPGKERELVAAISGSGGTTRYADSVKGRFTISRDNAKNTVYLQMNSLKPEDTAVYYCAARPPGLALEYGYWGQGTQVTVSS | high polyreactivity |

| Sequence | polyreactivity (PSR sort gate) |
| --- | --- |
| QVQLVESGGGLVHAGGSLRLSCAASGRTFVSYAMGWYRQAPGKERELVAAITNAGSTYYADSVKGRFTISRDNAKNTVYLQMNSLKPEDTAVYYCAATYWDYWGYGYDYWGQGTQVTVSS | high polyreactivity |
| QVQLVESGGGLVHAGGSLRLSCAASGRTVKNNAMGWYRQSPGKERDLVAAISSTGSTNYADSVKGRFTISRDNAKNPVYLQMNSLKPADTAVYYCAAEGIFRYYTQATMEYWGQGTQVTVSS | low polyreactivity |
| QVQLVESGGGLVHAGGSLRLSCAASGSIFGRYVMGWYRQAPGKERELVAAITRSGGSTYYADSVKGRFTISRDNAKNTVYLQMNSLKPEDTAVYYCNADVNFIDDDYWGHGTQVTVSS | low polyreactivity |
| QVQLVESGGGLVHAGGSLRLSCAASGSIFIYYAMGWYRQPPGKERELVAAIDRSGGNTYYADSVKGRFTISRDYAKTSVYLEMNSLKPEDTAVDYCAAQVHRRVQYDYWGQRTQVTVSS | high polyreactivity |
| QVQLVESGGGLVHAGGSLRLSCAASGSIFPSNAMGWYREAPGKERELVAAISQSGGRTYYADSVKGRFTISRDNAKNTVYLQMNSLKPEDTAVYYCAADHRRAGMDYWGQGTQVTVSS | low polyreactivity |
| QVQLVESGGGLVHAGGSLRLSCAASGSIFTWNGMGWYRQAPGKERELVAGMSYSGGITYTDSVKGRFTISRDNAKNTVYLQMNSLKPEDTAVYYCNARSKVAYYRHYYWGQGTQVTVSS | low polyreactivity |
| QVQLVESGGGLVHAGGSLRLSCAASGSISTRNAMGWYRQAPGKDRELVASITSGGSTYYADSVKGRFTISRDNAKNTVYLQMNSLKPEDTAVYYCAARRRRPWGYGYGYWGQGTQVTVSS | high polyreactivity |
| QVQLVESGGGLVHAGGSLRLSCAASGSTFDKYAMGWYRQAPGKERELVAAITWGGGSTYYADSVKGRFTISRDYAKNTVYLQMNSLKPEDTAVYYCNAYRVYAWIEYNYWGQGTQVTVSS | low polyreactivity |
| QVQLVESGGGLVHAGGSLRLSCAASGSTFQLNAMGWYRQAPGKERELVAAISTRGGSTYYADSLKGRFTISRDNAKNTVYLQMNSLKPEDTAVYYCAARLYTRRDYWGQATQVTVSS | high polyreactivity |
| QVQLVESGGGLVHAGGSLRLSCAASGSTFTRNAMGWYRQAPGKERELVATISWRSGSTYYADSVKGRFTISRDNAKNTVYLQMNSLKQEDTAGYYCAADYLNIYNYWGQGTQVTVSS | high polyreactivity |
| QVQLVESGGGLVHAGGSLRLSCAASGSTFVRNAMGWYRPAPGKERQLVAAITSRGGSTYYADSVKGRFTISRDNAKNTVYLQMISLKPEDTAVYYCAARFGVKRGQYDYWGQGTQVTVSS | high polyreactivity |
| QVQLVESGGGLVHAGGSLRLSCAASGSTFYSNVMGWYRQAPGKERELVAAISRSGGSTYYADSVKGRFTISRDNAKNTVYLQMNSLKAEDTAVYYCNRLRAPVRGDYWGQGTQVTVSS | high polyreactivity |
| QVQLVESGGGLVHAGGSLRLSCAASGYTFDSYTMGWYRQAPGKERELVAAISGRGGSTYYADSVKGRFTISRDNAKNTVYIQMNSLKPEDTAVYYCNTYPPIGYDYWGQGTQVTVSS | low polyreactivity |
| QVQLVESGGGLVHAGGSLRLSCAASGYTFPLYAMGWYRQAPGKERELVADINIGGASTYYADSVKGRFTISRDNAKNTVYLQMNSLKPEDTAVYYCAKEYYDGYFPTFDYDYWGQGTQVTVSS | low polyreactivity |
| QVQLVESGGGLVHAGGSLRLSCAASGYTFPLYAMGWYRQAPGKERELVAGINWRGGSTYYADSVKCRFTISRDNAKNTVYLQIKSLKPEDTAVYYCAADFSRYYTGGYDYWGQGTQVTVSS | low polyreactivity |
| QVQLVESGGGLVHAGGSLRLSCAASGYTFQAYAMGWYRQPPGKERELVAAISFSSGSTYYADSVKGRFTISRDNAKNTVYLQMNSLKPEDTAVYDCATDNWSVNGGYNYWGQGTQVTVSS | low polyreactivity |
| QVQLVESGGGLVHAGGSLRLSCAAYGSIFSKYVMGGSREAPGKERELVAAISWSGTRTYYADSVMGRFTISRDNAKNTVYLQMNSLKPEDTAVYYCAARRLYSGHQYDYWGQGTQVTVSS | high polyreactivity |
| QVQLVESGGGLVHAGGSLRLSCAAYGSIFYSYAMGWYRQAPGKERELVAAITSVGNTNYADSVKGRFTISRDNAKNTVYLQMNSLKPEDTAVYYYWGQGTQVTVSS | low polyreactivity |
| QVQLVESGGGLVHAGGSLRLSCADSGSTLGSNAMGWYRQAPGKERELVAAITWSGGTTYYADSVKGRFTISRDNAKNTVYLQMNSLKPEDTAVYYCATGQSVIYRYEYWGQGTQVTVSS | low polyreactivity |
| QVQLVESGGGLVHAGGSLRLSCAPSGRTFPRYAMGWYRQAPGKERELVAAISVRAGITYYADSVKGRFTISRDNAKNTVYLQMNSLKPEDTAVYYCDKEHSSTSYDEGDYWGQGTQVTVSS | low polyreactivity |
| QVQLVESGGGLVHAGGSLRLSCASSGSALFWNAMGWYRQAPGKERELVATITNSGGSTYYADSVKGRFTISRDNAKNTVYLQMNSLKPEDTAVYYCNADESAYWKLRHGLGSDSWGQGTQVTVSS | low polyreactivity |
